# Results from the DeepSol protein solubility set.
# Experiment: soluble on expression in E. coli; label from the status in PepcDB or PDB records
row,Sequence,soluble on expression in E. coli
1,MGSDKIHHHHHHMNMFSHINVDACKTPGCKNLGILGSPDYLPQGKNVLCRACGFLFPIISARSLNLFRQAANQPWKGLVKSCPHCGGTSLKKYGFSTKGERRMYCRQCNKTFISYTAIRSDARQENLATLIGEGASLVEIRAALAIDSTGFSRELQKLSRRANQAERDFVFPAFDIAMSTRAFRVKFNGGDSSLYVLVTAEEESGKVVAISTNYSAQPVEADYQYHSDYEERLPSGTLAHLVQRKEALTMRRNVLFDVDYGPAVLYKNDPGMLVKPVLPAYRHFELVQALTDERSLNVQHYLDHECFILGGCMMANFSYLRQGRCHISFVRERGVTPPKRDLPPRLFLSGGIRNNVWRTFSTRDYAMAVCNLTGNKKVSLLRHATLNSATAFIRYVHNHPFLPHLNRMSPGNVVAVLDYLKFEYNASRN,not soluble
2,MGSDKIHHHHHHMNPEFIHGATEIETTNRGLRPHRLSKEIVERYCDPQFSAMERQPSGVRVVCRTTATSVTLTTYSTRVVYLDSGRPGGKIDVLIDGAPTSSTPTSGGETTEVNFITGATERRLKDPQVLTVDGLSEQEKVVEFWLPHNEEIEVISLKANAALNTVEDTRPVWINYGSSISHGSVATAPTKIWPAIVAQSKNYNLRNFGFGGSAMLDPFMARLIRDTPADLITLEIGINIVNGDVMRRRGLEAAVDGFINTIRDGHPTTPIKIVSPFYCPIHEKTPGPGAFDTSSFGSGQIRFIATGEPDEHGRLTLEMVREVLEGFVEKQKDPHLTYVDGASLYQASDAPLLDNLHPDEASHALIAQRLLKQL,not soluble
3,MGSDKIHHHHHHMNPIQHILDTYPLIVLDGAMATELERKGCNLNDSLWSAKILMEEPELIKQVHTDYFAAGADCAITASYQSTFEGFAARGLSEAEARRLIELSVSIAAEARDEFWSLEENRLNRPKPIIAASIGPYGAYLADGSEYRGNYAISEDELIEFHRPRMKALIEAGADVLACETIPCLTEAKAIVRLLKEFPETYAWISFSAKDGLHISDGTPAADCASWLDEHRQIAALGINCTPLQHIPSLIEELKKNTSKPIIVYPNSGEQYDPETKTWNGAACAESYGASARTWHEKGARLIGGCCRTKPENIQEIAAWARSLKTT,not soluble
4,MGSDKIHHHHHHMNPKMIRSLKAFTRTVELNSMSAAANELHMTVSAISQQLQRLENDNGISLFHRNTRSLSLTEAGQVFYQSCLDMLAIAAKNQERWDQLTNQPQGQIKIIAPVGFGGGLLSEPLKQLQHEFANVSFQLHMTDEPIDLITAGADLAIRIGPLADSTLYARHLADWHMVPCIAAEHPAAENSIKSFDDLPEGCFIGHIPSLPNKDFPKPKVLLNNMQTVVQLTLDGVGYALLPQPEIKHYIESGRLLRLLPEWEGSPYSVHAVLPIKDNIPAKTERTIEVLSHFFHRL,not soluble
5,MGSDKIHHHHHHMNRELILKALIDWNFWYKNQFVGIEREYSDQLLDLLEKGLAISVIGVKRSGKSTIINQVVKKLIEKKGEDPFDTLIVNFEDSRFGDIRTANDLFSLYELYKELRKKKKDSKPYIFLDEVQKIKGWEGFVRSIVDRKEANIVISGSTASVNNKSVREVLAGRHLILEVFPLSFKEFLEFKNIRLETELDMIAKESEIKVLFSEYLSYGGFPLVVSNERDKEKILLQLYEDIIFKDVISECNIRNEEEAKNLAIFYISNVGNKIRFRKISRSLNIPFRNVQRYTECMKNAYLIFFVKALSPKLSEMAKYDKKVYCIDNGISNVLGYRLNQNIGSLFENLIFLELLRRYGINNVFYYRGRRGEVDFVVKVKDEIREIYQVTYQLSDVERELKGIEEFLKIRKTKAYIITFDDEGEIKVGDDLVKVVKGWKWLLLE,not soluble
6,MGSDKIHHHHHHMNRIQLSQLAVLATVAETSSFRKAAEELGIAPSAVSHAVSALEASLGVRLLARTTRSVAPTEEGRQLLQKLAPALADIGTALETLAENKSNPAGPLRITMPALAAEDLIVPRLGDFLGLYPDIQLELITNDQFEDIVEKGFDAGLRLGEHLETDMVAVKASGPISGTIIGAPSYFERHPLPVHPHDLMEHRCIRRRFSSGRIYRWELEKHGKQIAVDVPDVLTLADQRLIRLAALKGVGLAFVFDQRVDKDIREGRLIRVLEDWCPPFDGFYIYYPTRRQMRPALRAFVDFFRHRS,not soluble
7,MGSDKIHHHHHHMNRISVVILNWNGCEMLRSFLPSVLRYSEAEGVEVCVADNGSTDQSVEMLRREFPSVRRILLDGNHGFADGYNLALRQVEAEYVVLLNSDVEVTGQWLQPMAAYLDAHPEVAACQPKIRSWRQKEWFEYAGAAGGFIDRYGYPFCRGRVMGVVEADRGQYDTVLPIFWATGAAMFIRLADYREAGGLDGRFFAHMEEIDLCWRLRARGRGIVCIPQSVVYHVGGATLKKENPHKTFLNFRNNLVMLYKNLPDRELAGVMRVRCWLDYIAAATFALKGQPANAKAVVRARREFKLLRDSFRDARAENLRKTSSHFIPERIKSSILVQFYVKGRKFFSQLSDLKG,not soluble
8,MGSDKIHHHHHHMNRLRTSFQQTTGQISGHGKRNVGVLKTAFAAVADEMASDQYGTGAIIEPFEQKFADVLGMDDAVFFPSGTMAQQVALRIWSDETDNRTVAYHPLCHLEIHEQDGLKELHPIETILVGAADRLMTLDEIKALPDIACLLLELPQREIGGVAPAFSELETISRYCRERGIRLHLDGARLFEMLPYYEKTAAEIAGLFDSIYISFYKGLGGIAGAILAGPAAFCQTARIWKRRYGGDLISLYPYIVSADYYYELRKDRMGQYYEQAKQLAEQFNALPGVHTTPEVPVSNMFHLHFDGQAADISPKLEQVQEETGLGFVGYLVDKDGYCSTEISVGDAYGELDQQTRDAGFARLRQAFS,not soluble
9,MGSDKIHHHHHHMNSHWSEYWQQGHTTSFGEALSGNYEGVLKNVWEPVFDGLTENFLVVDVGTGNGSLPLLLRDGLSKVDLTGKVIGVDLAEVTLANSVSNNNQNIDIALMSNTRCEQLPFESNSVDLYISQFGFEYSNIEQSLEEATRVLKDDGQFVIVCHHNRSMILNRNRRILTLIDKDEVNLLINCLGKMANAMGNVSNQEDVERIKKDLQCEQIRAEINDLIKLLVMFDEAAAQDCDLMRFVAQFFKAGLFWPVTKKLEFIEFITIQMDTLKLRLTELVNAAFDETKLATFIAKFHQNNMVLNELKVLKNEQNEVLGWYLHGSKFI,not soluble
10,MGSDKIHHHHHHMNSKNPRTTIPAPLQSILSAIPLFAPLPPDDINTLSKLIEIQVFPKNRTILHEADTANYMYLVLAGKVRVVQHSNDGTEQVLAIHRKGAFFGEMALLDGRTSPATLIAHEDATVGLIARTAFENQILTNDRMLRQIISVLCSRLRESWFLMKLSRFSSAEQKVRGVLKYLGTQYGVDDSRGKILSIKLTHRTVAGYASVSRETASRILGRFSRAGEIELLASRRMLLKPTLFLNPPFL,not soluble
11,MGSDKIHHHHHHMNSPKNSLYEEKSGHYYNAVNPNLLKHIKKEWKEVLDIGCSSGALGAAIKENGTRVSGIEAFPEAAEQAKEKLDHVVLGDIETMDMPYEEEQFDCVIFGDVLEHLFDPWAVIEKVKPYIKQNGVILASIPNVSHISVLAPLLAGNWTYTEYGLLDKTHIRFFTFNEMLRMFLKAGYSISKVDRVYVDHKMYEPLIEELYGICKKYRLGSGFMAETVVFQYIIEAEKSQL,not soluble
12,MGSDKIHHHHHHMNTEHAAYQIADELGGLELLNAHYHKQNFSRHTHEGYTVGVIETGAQRFYRTGGNHVAPKHSIILVNADEVHNGCSATEGGWSYRAMYPVPAQFAGINSERAANSGAPYFPEPVVYDPELAELLRLTFTTLDTSDNRLLRESLVYSSLTQLMARHGKHRPSDNLAAMAKPALALVKSFIDDHPAADISLEELATLAGLSPYYLLKQFQRYYGLPPHAYQIQARVRLAKGKIKQGTRLLDVALDCGFHDQSHLNRHFKKTVGVTPGQFAKEIGRNIIQA,not soluble
13,MGSDKIHHHHHHMNTRDLDYFRALVDCQNYTMVAKQFAVSQPAVTQAIHRLEKEFAVKLVIQDRRHQQTNITRAGQLLYKNARQIQASLQLAHREIQSTLQTDIRFGLPPIIGTLYFPQIAEKLLQNGLLQQLKITETGSDELLRKLVHGEINIALLGSYLPFDLPTVRAVHLGARPFSIIVSPQNSLAKQAAVSFKNLGQAQFIGLDGKYVHPQAFRAYCDFAGVHPEVIYRTPDISWVKALVKANLGISLLVRDVVKADDGVVCLEIKDQLPVSFNISVVTRAGYLPTTDEQRFIDQLLKMKI,not soluble
14,MGSDKIHHHHHHMNTSYLIDFLENKQVSTITKTKHSYLTYHGLEEGYTYVLKKGIVKTSIILKNGREFNLSYINSTDIVSLLRDEISAYTASPLNVRIESDEAIFYRIPRKTFWDYVNHDTHLQDYVRDYYRIKLTQNIKSLQWMTMNGKKGAVCAFIYKLIDIFGRRGATGILIDFPITNEEIANFCGISTRNSVNRIIHDLKEQHVIDIKNQKIFIYDENYLREFTI,not soluble
15,MGSDKIHHHHHHMNVAERKKQTVVSSGISGLDEILRGGLPASNLYIVQGAPGSGKTTAALQFLRAGVALGEPCIYVSLSQTRAELEAIALSHGWTLDGIRVEELSASDSINRAADQTIFQTTELRLDETRKAIESAIEEHKPSRLVYDSLLEIRLITADSPRFRRELIAFKAFLAQRNIVALLLDTQTSETDRTGEEVDGIAHGVIRLDKSLEEYGGVRRRIEVSKMRGVPVADGYHDMAIREGEGVVVFPRIVPGAAARTVKPQLIKSGVDTLDEMFGGGQESGTTTLVIGQAGTGKSTMASLYATAALKRGESVGLFLFEERIETFFRRSEGLGMALRQFHEDGQLILRDFNPNEISPGEFGQIVQQSVNSEKVKVVVIDSFTGYLNSLPHREKAVRDIQSLLKYLARAGVLTILIVAQHGLLGQGVGIDVDVSFLGDTVLLLRIAEHEGRLRRSITVVKKRHGPHDLDVRELFIQSSGVSVIAYNPLPEV,not soluble
16,MGSDKIHHHHHHMNVHKIVWQEGMLLRPQHLQHNDRYYDNQMKARTQLLGSYNWGFLALELDRQFLNMGKLVISQASGVLPDGSLFELGGNTEPLALDVPPNTSNVPIYLALPLVTGNHIEARRPEQAEVLARYTAYDLEVADSNAGEDSMVQVSCARPDFRLLLGEQQSDQAYVKLKVAVVLDSTPDGVISLDPDFVPSYLHAHASAYLLSCLKEVISMLGHRGDTIAERIRSNGKVGGAEVGDFMMLQLINRTELLLRHYLGLEQVHPEQLYRVLLTMLGDLATFGSESKRPRLDSRYQHSDQGASFRRLMEAIRQVLSMVLEQHAIELPLQARQYGILVSPLHDHKLLGSASFVLAASANCESEELRQRLPAHLKVGAVEHIRQLVNLHLPGIRVKPLPVAPRQIPFHSNKTYFILEPNAEDMAQLERSGGFAFHVSGEFSELELKFWAIRN,not soluble
17,MGSDKIHHHHHHMNYFATVARGLETLAAQELEQLGAHSVEPGFCGVAFEGDRTLLYRVNLWARLPFRILVDIHEFPCLDAKDLYRGIQTIDWQNYLTPDMTLAVNVTGKNAHLNHSHFTSLQVKNAIVDQQQEKLGERSNVELHEPDVRVNVHIERDFCTVKLDSSGNSLHRRGYRPAVGSAPLKESLAAALIQLSGWKQDQMFYDPLCGSGTLPLEASLKALNIAPGLFRESFGFENWLDFDLVLLEKLLQEAKDSQLDTLPAPIWGSDHDENVIEQAINNAQNCGVDNHVWFSQMELADVVAPADSGILLCNPPYGERLGRDSDLGAFYKLLGDVLKQRFKGWTAFVLSGNKELSQSIGLKSSKRIAVYNGALPCQLMKYELY,not soluble
18,MGSDKIHHHHHHMNYIYSFINGDFMRFFNREKEITEILSILEGNPDLVYFVYGPLNSGKTALISEIINNRIDKNKYVVFYINLRGIFISKYKDFIEVLFEEYEEDRKPVEIIKSLIKDVPSLCGIPTPKNTLEEILKKKTTKNVFKYITNVLMDIKKEGKQPIIIIDELQKIGDMKINGFLIYELFNYFVDLTKELHLCHVFCLSSDSLFIEQVYSEAMLKDRVDYILVDDFDKETALKFMDFLAEEILNKKLSDDEKELIYSYVGGKPILIIKVIKKLKIKGLKETLDEMLRDEMQKLKYFLEDIKEKDEESYNKIADALEIFKDSYEIEDIKIPKNIREFLVKKNILFLNPQKGTLKPQSYLVWNAIKRLL,not soluble
